{"source": "patent US20240024383A1", "about": "“ENGINEERED PROBIOTIC COMPOSITIONS AND USES THEREOF” (priority 2020, published 2024)", "key": {"C. difficile": {"system": "C. difficile", "assay": "Mouse model for parenteral ampicillin-induced disruption of colonization resistance against C. difficile", "type": "in vivo, C57BL/6 mice", "conditions": "single daily dose, 200 mg/kg intraperitoneal, 3 days, 5×10^3 spores 24 hours after last dose", "protocol": "FIGS. 7A-7C. Mouse model for parenteral ampicillin-induced dysbiosis and the disruption of colonization resistance against C. difficile. FIG. 7A. A 3-day intraperitoneal ampicillin administration regimen is evaluated for its effects in abolishing colonization resistance against 5×10^3 spores of C. difficile at 24 hours after the last ampicillin dose. C. difficile density in feces is evaluated 24 hours after the infection. FIG. 7B. […] FIG. 7C. Dose-dependency of single daily intraperitoneal ampicillin injections in the disruption of colonization resistance against C. difficile.\nL. lactis spTEM1 protects the diversity and composition of gut the microbiota in an ampicillin-induced dysbiosis murine model. To test the efficacy of L. lactis spTEM1 in preventing ampicillin-induced dysbiosis, a mouse model was developed that utilizes susceptibility to C. difficile infection as an endpoint indication of gut dysbiosis. […] Based on this antibiotic regimen, the inventors devised a probiotic intervention aimed at populating the mouse gut with L. lactis spTEM1 while ampicillin circulates in the body (FIG. 3A). […]\nC. difficile infection. […] The number of colony forming units (CFU) was counted using TCCFA plates supplemented with 50 μg/mL Erythromycin at 37° C. under anaerobic conditions, as previously reported.^26"}, "[1]": {"target": "T1, β lactamase fragment (BLF) 2 of TEM1 β-lactamase, without SpyCatcher", "T1 chain": "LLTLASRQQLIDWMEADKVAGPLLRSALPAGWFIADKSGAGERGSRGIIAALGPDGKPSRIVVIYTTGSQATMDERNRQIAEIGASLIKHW"}, "[2]": {"assay": "Nitrocefin hydrolysis assay for β-lactamase activity in culture supernatants", "type": "biochemical", "conditions": "0.1 mM nitrocefin, absorbance at 486 nm", "description": "A L. lactis strain was generated that is able to inactivate β-lactam antibiotics in its surroundings by secreting a split enzyme that is encoded in a two-gene biosynthesis pathway. By splitting β-lactam degradation into a genetically unlinked trait the selective advantage conferred upon a single locus was removed, thereby limiting the possible spread of the engineered trait in the population through a single HGT event. To achieve this, a heterodimeric version of the TEM1 β-lactamase (spTEM1) that regains its activity when reconstituted in the extracellular environment was generated.\nβ-lactamase assay. Nitrocefin (BioVision) was dissolved in DMSO to make a 1 mM stock. It was added to samples bacterial culture supernatant in a clear-bottom 96-well plate to a final concentration of 0.1 mM. The plate was placed in a spectrophotometer SpectraMaX™ M5 (Molecular Devices) to read absorbance at 486 nm over time."}, "E. coli": {"system": "E. coli", "assay": "Cell density-dependent survival/growth on ampicillin, E. coli expressing spTEM1 elements", "type": "cell-based, Escherichia coli", "description": "FIGS. 2A-2B. […] FIG. 2A. Cell density-dependent growth on ampicillin. β-lactamases in the periplasm of Gram-negative bacteria i.e. E. coli, confer selective advantage to single-cells. Survival to ampicillin is an emergent property of the of the L. lactis spTEM1 population and not of single cells. Diffusion from the cell surface precludes protection to the producer cell when the population density is low. FIG. 2B. Estimation of the ampicillin survival density threshold in prototypical Gram-negative and Gram-positive strains expressing elements of the spTEM1 system.\nThe spTEM1 β-lactamase system is not amenable to HGT. Stable acquisition of a new genetic trait by HGT requires both the physical mobilization of DNA into the recipient cell and that the expression of the newly obtained genetic material provides enough selective advantage to outcompete the rest of the population. While encoding the spTEM1 β-lactamase system in separate genetic loci reduces the likelihood of transfer to a single recipient cell, the scenario of simultaneous acquisition of the two β-lactamase fragments cannot be completely ruled out. The inventors investigated whether stable acquisition of the spTEM1 β-lactamase genes to a Gram-negative bacterium confers a fitness advantage in the presence of ampicillin.\nBacterial strains. […]"}}, "note": "“Also recorded” adds a separate entry of the source.", "data": [{"molecule": "CC1(C)S[C@@H]2[C@H](NC(=O)[C@H](N)c3ccccc3)C(=O)N2[C@H]1C(=O)O", "note": "[ampicillin]", "values": [{"measurement": "disruption of colonization resistance against C. difficile", "setting": "C. difficile", "result": "sufficient to abrogate colonization resistance; also recorded: enough to sensitize the mouse gut to robust C. difficile colonization"}]}, {"molecule": "β lactamase fragment (BLF) 1 of TEM1 β-lactamase, without SpyTag (protein) MHPETLVKVKDAEDQLGARVGYIELDLNSGKILESFRPEERFPMMSTFKVLLCGAVLSRIDAGQEQLGRRIHYSQNDLVEYSPVTEKHLTDGMTVRELCSAAITMSDNTAANLLLTTIGGPKELTAFLHNMGDHVTRLDRWEPELNEAIPNDERDTTTPVAMATTLRKLLTG", "values": [{"measurement": "β-lactamase activity in culture supernatants (nitrocefin)", "setting": "[1]", "result": "slow in reconstituting and show minimal β-lactamase activity"}]}, {"molecule": "ST-BLF-1: SpyTag fused to TEM1 β-lactamase fragment BLF1 with usp45 secretion signal (SEQ ID NO: 4) (protein) MKKKIISAILMSTVILSAAAPLSGVYAAHIVMVDAYKPTKGGGGSGGGGSMHPETLVKVKDAEDQLGARVGYIELDLNSGKILESFRPEERFPMMSTFKVLLCGAVLSRIDAGQEQLGRRIHYSQNDLVEYSPVTEKHLTDGMTVRELCSAAITMSDNTAANLLLTTIGGPKELTAFLHNMGDHVTRLDRWEPELNEAIPNDERDTTTPVAMATTLRKLLTG", "values": [{"measurement": "β-lactamase activity (nitrocefin hydrolysis)", "setting": "[2]", "result": "do not display β-lactamase activity"}]}, {"molecule": "TEM1 β-lactamase: Intact TEM1 β-lactamase with periplasmic localization in E. coli (protein, UniProt P62593 24-286, looked up) Beta-lactamase TEM: HPETLVKVKDAEDQLGARVGYIELDLNSGKILESFRPEERFPMMSTFKVLLCGAVLSRVDAGQEQLGRRIHYSQNDLVEYSPVTEKHLTDGMTVRELCSAAITMSDNTAANLLLTTIGGPKELTAFLHNMGDHVTRLDRWEPELNEAIPNDERDTTMPAAMATTLRKLLTGELLTLASRQQLIDWMEADKVAGPLLRSALPAGWFIADKSGAGERGSRGIIAALGPDGKPSRIVVIYTTGSQATMDERNRQIAEIGASLIKHW", "values": [{"measurement": "growth in ampicillin as single colonies", "setting": "E. coli", "result": "enables the growth in ampicillin as single colonies"}]}]}
